In patent US20210032350A1 (Memorial Sloan Kettering, published 2021) one finds binding result and Kd data, which are given here for one molecule.

In one assay the target is T1, mouse Galectin-3 (mouse, UniProt P16110 2-264, limits assumed).
T1 construct: also called mLGALS3; mouse LGALS3
As to the kind of experiment: ELISA screening (Table 1, antigen target). On the technique in general: ELISA stands for enzyme-linked immunosorbent assay.

A further assay addresses T2, human Galectin-3 (human, UniProt P17931 1-250).
T2 construct: In the laminin assay it was biotin-labelled; also called LGALS3; Gal3
Put plainly: SPR, antibody captured on anti-mouse Fc surface, 8-pt 2-fold dilution series of LGALS3 from 500 nM. On the procedure: SPR: Antibody binding to LGALS3 was confirmed by surface plasmon resonance (SPR) assay. The antibody was captured on an anti-mouse Fc surface and an 8-pt. 2-fold dilution series of LGALS3 was flown over the antibody starting at 500 nM.

T1 sequence (P16110 2-264 limits assumed): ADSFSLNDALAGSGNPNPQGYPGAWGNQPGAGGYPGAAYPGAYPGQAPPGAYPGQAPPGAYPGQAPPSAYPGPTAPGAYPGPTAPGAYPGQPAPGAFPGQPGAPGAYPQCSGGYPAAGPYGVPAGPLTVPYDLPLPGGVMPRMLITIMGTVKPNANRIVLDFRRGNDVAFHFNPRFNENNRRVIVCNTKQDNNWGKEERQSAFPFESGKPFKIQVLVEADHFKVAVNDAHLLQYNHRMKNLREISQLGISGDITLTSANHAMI
T2 sequence (P17931 whole entry): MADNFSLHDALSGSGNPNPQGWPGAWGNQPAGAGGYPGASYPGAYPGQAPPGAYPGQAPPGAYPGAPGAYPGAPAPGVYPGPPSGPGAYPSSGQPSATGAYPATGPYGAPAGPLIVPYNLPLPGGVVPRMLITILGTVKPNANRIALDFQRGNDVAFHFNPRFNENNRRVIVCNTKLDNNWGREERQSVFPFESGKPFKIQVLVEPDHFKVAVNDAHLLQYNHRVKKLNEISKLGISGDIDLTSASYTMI

B1: 112516.14D11.2D2 (antibody, V domains shown)
VH: QVQLKESGPGLVAPSQSLSITCTISGFSLSSYGVHWVRQPPGKGLEWLVVIWSDGSTTYNSTLKSRLSISKDNSKSQVFLKMNSLQTDDTAMYYCARHISNYGTMDYWGQGTSVTVS
VL: DIQMTQTTSSLSASLGDRVTISCRASQDIRNYLNWYQQKPDGSIKLLIYYTSRLHSGVPSRFSGSGSGTDYSLTIRNLEQEDIATYFCQHFNTLPPTFGGGTKLEIK
On to B1, for which the binding result in the assay with mouse Galectin-3 is listed as “binds”. Besides, the Kd with human Galectin-3 came out at 14.6 nM.

Broadly, the Kd is the free concentration of one partner at which half of the binding sites on the other are occupied at equilibrium, for simple one-to-one binding. A lower Kd goes with higher affinity.
